Here are results for 4 molecules from patent US20110135636A1 (SYMPHOGEN A S, published 2011).

B1: antibody 1308 (antibody, human IgG1, kappa, V domains shown)
VH: EVQLQQSGAELVRPGSSVKISCKASGYAFSSYWMNWVRQRPGQGLEWIGQIYPGDGDTNYNGKFKGRATLTANKSSSTAYMQLSSLTSEDSAVYFCARRASSLYDVYPYYFDYWGQGTTLTVSS
VL: DIQMTQTTSSLSASLGDRVTISCRASQDISNYLNWYQQKPDGTVKVLIYYTSRLHSGVPSRFSGSGSGTDYSLTISNLEQEDIATYFCQQGNTLPYTFGGGTKLEIKR
notes: Chimeric IgG1 kappa
B2: antibody 1320 (antibody, human IgG1, kappa, V domains shown)
VH: QVQLQQPGAELVKPGASMKLSCKASGYTFTNYWMHWVKQRPGQGLEWIGEINPSNGRTNYNEKFKSKATLTVDKSSSTAYMQLSSLTSEDSGVYYCAKGGNYYDYDWDYWGQGTTLTVSS
VL: B1 VL with R24S, V46L, Y50H, R53T, Q80P, F87Y, G91Y, N92S, T93K, Y96W
notes: Chimeric IgG1 kappa
B3: antibody 1347 (antibody, human IgG1, kappa, V domains shown)
VH: QVQLKESGPGLVAPSQSLSITCTVSGFSLTGHGVNWVRQPPGKGLEWLGMIWGDGSTDYNSTLKSRLSISKDNSKSQVFLKMNSLQTDDTARYYCARGYGYLYYFDYWGQGTTLTVSS
VL: ENVLTQSPAIMSASPGEKVTMTCRASSSVSSSYLHWYQQKSGASPKLWIYSTSNLASGVPARFSGSGSGTSYSLTVNSVETEDAATYYCHQYSGFPFTFGSGTKLELKR
notes: Chimeric IgG1 kappa
B4: antibody 1284 (antibody, human IgG1, kappa, V domains shown)
VH: QVQLQQPGAELVKPGASVKLSCKASGYTFTSDWMHWMKQRPGQGLEWIGEINPSNGRSSYNEKFKSKATLTVDKSSSTAYMQLSSLTSEDSAVYYCARIGGIYVETYWGQGTLVTVSS
VL: DIVLTQSPASLAVSLGQRATISCRASQSVSTSTYSYMHWYQQKSGQPPKLLIKYASNLESGVPARFSGSGSGTDFTLNIHPVEEEDTATYYCQHSWEIPWTFGGGTKLEIKR
notes: Chimeric IgG1 kappa

Numbering of substitutions follows the chain as printed.

One assay has as its target T1, recombinant human EGFR extracellular domain with 6xHis (human, UniProt P00533 25-645).
T1 construct: In-house produced; also called 6xHis EGFR ECD; soluble human EGFR ECD; not shown: 6xHis tag
The experiment in a line: SPR competition, competitor 1284. In short, it runs like this:
(§1)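 Epitope blocking measured by SPR: captured human EGFR ECD-His bound the competitor first, then the test anti-EGFR mAb. Its Ru max was compared with an uncompeted reference injection at 40 μg/ml. Complexes were stripped at pH 2.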
The term % inhibition denotes the drop in the measured response relative to a control, in per cent. Take B1: the “% inhibition” value was 76%.
As for B2, the “% inhibition” value was 5%.
Still for that read-out and setting: next, B3: 61%.
On the same count and under the same terms, next, B4: 98%.

Another assay addresses T1, recombinant human EGFR extracellular …. Briefly: SPR competition, competitor Ab-1. In short, it runs like this: as §1
Regarding B1, the “% inhibition” value is -5%.
Still for that read-out and setting: next, B2: 3%; B3: -3%; B4: -9%.

A further assay has the same target. Briefly: SPR competition, competitor 1257. In short, it runs like this: as §1
Take B1: the “% inhibition” value is 27%.
Same read-out and setting: next, B2: 2%; B3: 19%.
On the same count and under the same terms, next, B4: 0%.

The target is the same in the next assay. The experiment in a line: SPR competition, competitor Erbitux. The procedure, abridged: as §1
Regarding B1, the “% inhibition” value was -6%.
Still for that read-out and setting: next, B2: 2%; B3: -4%; B4: -2%.

Another assay shares this target. Briefly: SPR competition, competitor 1208. In short, it runs like this: as §1
As to B1, the “% inhibition” value was 1%.
Regarding B2, the “% inhibition” value is -3%.
Still for that read-out and setting: next, B3: 0%.
Turning to B4, the “% inhibition” value was -2%.

For another assay the target is unchanged. Briefly: SPR competition, competitor 1347. The procedure, abridged: as §1
Take B1: the “% inhibition” value was 65%.
The same measure, in the same setting: next, B2: 5%.
On the same count and under the same terms, with B3 the figure was 70%; with B4, 62%.

For the next assay the target is unchanged. The experiment in a line: SPR competition, competitor Vectibix. In short, it runs like this:
as §1
Consider B1, for which the “% inhibition” value is -7%.
Turning to B2, the “% inhibition” value is 14%.
Same read-out and setting: with B3 the figure was -5%; with B4, -2%.

A further assay has the same target. The experiment in a line: SPR competition, competitor 1344. In short, it runs like this: as §1
In the case of B1, the “% inhibition” value came out at 67%.
The same measure, in the same setting: next, B2: 2%; B3: 38%.
Still for that read-out and setting: next, B4: 73%.

The next assay shares this target. The experiment in a line: SPR competition, competitor Ab-10. The procedure, abridged: as §1
With B1, the “% inhibition” value was -3%.
Same read-out and setting: with B2 the figure was -2%; with B3, -1%; with B4, -8%.

For another assay the target is unchanged. The experiment in a line: SPR competition, competitor Ab-3. The procedure, abridged: as §1
As to B1, the “% inhibition” value came to 11%.
Still for that read-out and setting: next, B2: 2%; B3: 11%.
The same measure, in the same setting: next, B4: 9%.

The target is the same in another assay. Briefly: SPR competition, competitor Ab-11. In short, it runs like this: as §1
In the case of B1, the “% inhibition” value was found to be 85%.
Same read-out and setting: with B2 the figure was -6%; with B3, 86%.
Same read-out and setting: next, B4: -15%.

For another assay the target is unchanged. The experiment in a line: SPR competition, competitor 1277. In short, it runs like this:
as §1
With B1, the “% inhibition” value worked out at 7%.
The same measure, in the same setting: with B2 the figure was 0%.
The same measure, in the same setting: with B3 the figure was 6%.
On the same count and under the same terms, next, B4: -3%.

A further assay shares this target. Briefly: SPR competition, competitor Ab-5. The procedure, abridged: as §1
For the molecule B1, the “% inhibition” value is -4%.
Same read-out and setting: next, B2: -3%; B3: -1%.
B4: the “% inhibition” value is -13%.

For the next assay the target is unchanged. Briefly: SPR competition, competitor Vectibix. The source holds these as a separate data set. In short, it runs like this: as §1
Regarding B1, the “% inhibition” value is -8%.
The same measure, in the same setting: next, B2: 6%; B3: -6%.
Consider B4, for which the “% inhibition” value was -13%.

Another assay has the same target. The experiment in a line: SPR competition, competitor Erbitux. This is another data set of the same source. The procedure, abridged:
as §1
Regarding B1, the “% inhibition” value is -6%.
Same read-out and setting: next, B2: 2%; B3: -4%.
Same read-out and setting: with B4 the figure was -7%.

Another assay has the same target. The experiment in a line: SPR competition, competitor 992 corr. In short, it runs like this:
as §1
For the molecule B1, the “% inhibition” value was -9%.
Still for that read-out and setting: next, B2: -27%.
Same read-out and setting: next, B3: 7%.
The same measure, in the same setting: next, B4: 6%.

For a further assay the target is unchanged. Briefly: SPR competition, competitor 1254. In short, it runs like this:
as §1
For B1, the “% inhibition” value was 0%.
Same read-out and setting: with B2 the figure was 3%.
With B3, the “% inhibition” value stood at 0%.
Still for that read-out and setting: next, B4: -3%.

The next assay has the same target. The experiment in a line: SPR competition, competitor 1320. The procedure, abridged: as §1
Take B1: the “% inhibition” value was 2%.
Same read-out and setting: next, B2: 97%; B3: 2%; B4: -1%.

For the next assay the target is unchanged. Briefly: SPR competition, competitor 1260. The procedure, abridged:
as §1
Regarding B1, the “% inhibition” value was 86%.
Same read-out and setting: with B2 the figure was -4%.
Still for that read-out and setting: next, B3: 41%; B4: 79%.

The next assay has the same target. The experiment in a line: SPR competition, competitor ICR10. The procedure, abridged: as §1
Consider B1, for which the “% inhibition” value was determined as 15%.
The same measure, in the same setting: next, B2: -3%; B3: 17%; B4: 86%.

The target is the same in a further assay. The experiment in a line: SPR competition, competitor 1024. The procedure, abridged:
as §1
As to B1, the “% inhibition” value turned out to be 3%.
With B2, the “% inhibition” value worked out at 93%.
Still for that read-out and setting: next, B3: 4%.
As to B4, the “% inhibition” value came out at 0%.

A further assay shares this target. Briefly: SPR competition, competitor 1261. The procedure, abridged:
as §1
On to B1, for which the “% inhibition” value was -9%.
On to B2, for which the “% inhibition” value is 4%.
Same read-out and setting: next, B3: -23%.
The same measure, in the same setting: with B4 the figure was 4%.

The target is the same in the next assay. The experiment in a line: SPR competition, competitor 1030corr. In short, it runs like this:
as §1
In the case of B1, the “% inhibition” value is -2%.
The same measure, in the same setting: with B2 the figure was 0%.
Still for that read-out and setting: with B3 the figure was -2%; with B4, -5%.
